Data reported in article PMC9482650, “Quantitative fragmentomics allow affinity mapping of interactomes” (Nature Communications, 2022).

T1: MPDZ_13, O75970
T1 sequence (O75970 1982-2070, limits assumed, looked up): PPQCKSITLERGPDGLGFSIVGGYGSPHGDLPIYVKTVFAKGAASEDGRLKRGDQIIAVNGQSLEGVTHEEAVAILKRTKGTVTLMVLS

T2: PARD6G, Q9BYG4
T2 sequence (Q9BYG4 153-261, limits assumed, looked up): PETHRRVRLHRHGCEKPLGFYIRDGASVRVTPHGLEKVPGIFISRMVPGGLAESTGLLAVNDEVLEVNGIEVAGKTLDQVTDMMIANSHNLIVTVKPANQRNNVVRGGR

T3: MLLT4, P55196
T3 sequence (P55196 1002-1103, limits assumed, looked up): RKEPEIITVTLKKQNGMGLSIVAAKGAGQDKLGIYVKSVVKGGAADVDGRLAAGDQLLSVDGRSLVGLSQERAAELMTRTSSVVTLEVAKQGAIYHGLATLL

T4: TJP3_1, O95049
T4 sequence (O95049 6-103, limits assumed, looked up): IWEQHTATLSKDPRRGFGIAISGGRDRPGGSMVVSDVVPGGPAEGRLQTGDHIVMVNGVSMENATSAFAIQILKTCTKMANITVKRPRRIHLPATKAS

T5: PDZD2_6, O15018
T5 sequence (O15018 2745-2839, limits assumed, looked up): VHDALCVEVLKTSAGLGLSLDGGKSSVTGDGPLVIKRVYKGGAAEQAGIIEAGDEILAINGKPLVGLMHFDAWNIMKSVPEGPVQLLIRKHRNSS

T6: PDLIM3, Q53GG5
T6 sequence (Q53GG5 1-94, limits assumed, looked up): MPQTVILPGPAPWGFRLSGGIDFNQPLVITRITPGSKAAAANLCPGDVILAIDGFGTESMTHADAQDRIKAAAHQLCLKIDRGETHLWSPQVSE

T7: PDZD4, Q76G19
T7 sequence (Q76G19 125-224, limits assumed, looked up): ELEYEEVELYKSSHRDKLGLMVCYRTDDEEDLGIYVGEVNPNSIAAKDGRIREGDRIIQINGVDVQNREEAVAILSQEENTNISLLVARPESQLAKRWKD

T8: USH1C_1, Q9Y6N9
T8 sequence (Q9Y6N9 82-179, limits assumed, looked up): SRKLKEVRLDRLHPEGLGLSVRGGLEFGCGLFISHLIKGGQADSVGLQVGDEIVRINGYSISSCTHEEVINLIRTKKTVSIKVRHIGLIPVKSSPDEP

T9: MPDZ_11, O75970
T9 sequence (O75970 1720-1817, limits assumed, looked up): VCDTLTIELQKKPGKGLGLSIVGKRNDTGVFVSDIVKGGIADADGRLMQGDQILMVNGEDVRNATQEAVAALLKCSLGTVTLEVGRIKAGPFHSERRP

T10: NHERF3_2, Q5T2W1
T10 sequence (Q5T2W1 129-225, limits assumed, looked up): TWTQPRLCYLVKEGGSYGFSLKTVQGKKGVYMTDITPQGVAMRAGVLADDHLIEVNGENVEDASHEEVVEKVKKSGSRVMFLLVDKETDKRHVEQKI

T11: LNX2_4, Q8N448
T11 sequence (Q8N448 595-690, limits assumed, looked up): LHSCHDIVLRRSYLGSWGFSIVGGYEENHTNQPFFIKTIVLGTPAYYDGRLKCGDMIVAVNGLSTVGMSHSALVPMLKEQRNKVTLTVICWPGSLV

T12: SHANK3, Q9BYB0
T12 sequence (Q9BYB0 641-750, limits assumed, looked up): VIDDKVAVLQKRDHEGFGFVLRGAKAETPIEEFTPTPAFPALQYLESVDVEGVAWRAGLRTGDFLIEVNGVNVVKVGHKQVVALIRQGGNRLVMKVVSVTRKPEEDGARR

T13: PDZD11, Q5EBL8
T13 sequence (Q5EBL8 42-139, limits assumed, looked up): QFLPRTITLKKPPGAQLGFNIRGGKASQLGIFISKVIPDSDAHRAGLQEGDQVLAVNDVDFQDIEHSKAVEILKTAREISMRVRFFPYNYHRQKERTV

B1: HPV59-E6, Q81964 (peptide)
chain: QRQARSETLV
B2: ATP2B4, P23634 (peptide)
chain: SSLQSLETSV
B3: HPV30-E6, P36809 (peptide)
chain: RHTTSTETAV

Molecular target: T1, MPDZ_13, O75970
Test: holdup assay
Design: key: below the threshold = too weak to quantify, mostly under pKd 3.1 to 4
Details: plain residues with an end cap or a label only (N-terminal biotin on a linker: ttds)

Binder	pKd
B1	below the threshold
B2	below the threshold
B3	below the threshold

Molecular target: Q8TB45
Test: holdup assay
Design: key: below the threshold = too weak to quantify, mostly under pKd 3.1 to 4
Details: plain residues with an end cap or a label only (N-terminal biotin on a linker: ttds)

Binder	pKd
B1	below the threshold
B2	below the threshold
B3	below the threshold

Molecular target: T2, PARD6G, Q9BYG4
Test: holdup assay
Design: key: below the threshold = too weak to quantify, mostly under pKd 3.1 to 4
Details: plain residues with an end cap or a label only (N-terminal biotin on a linker: ttds)

Binder	pKd
B1	below the threshold
B2	below the threshold
B3	below the threshold

Molecular target: Q96SB3
Test: holdup assay
Design: key: below the threshold = too weak to quantify, mostly under pKd 3.1 to 4
Details: plain residues with an end cap or a label only (N-terminal biotin on a linker: ttds)

Binder	pKd
B1	below the threshold
B2	below the threshold
B3	below the threshold

Molecular target: T3, MLLT4, P55196
Test: holdup assay
Design: key: below the threshold = too weak to quantify, mostly under pKd 3.1 to 4
Details: plain residues with an end cap or a label only (N-terminal biotin on a linker: ttds)

Binder	pKd
B1	4.33
B2	below the threshold
B3	below the threshold

Molecular target: O60759
Test: holdup assay
Design: key: below the threshold = too weak to quantify, mostly under pKd 3.1 to 4
Details: plain residues with an end cap or a label only (N-terminal biotin on a linker: ttds)

Binder	pKd
B1	below the threshold
B2	below the threshold
B3	below the threshold

Molecular target: LIMK1, P53667
Test: holdup assay
Design: key: below the threshold = too weak to quantify, mostly under pKd 3.1 to 4
Details: plain residues with an end cap or a label only (N-terminal biotin on a linker: ttds)

Sequence of LIMK1, P53667 (P53667 155-268): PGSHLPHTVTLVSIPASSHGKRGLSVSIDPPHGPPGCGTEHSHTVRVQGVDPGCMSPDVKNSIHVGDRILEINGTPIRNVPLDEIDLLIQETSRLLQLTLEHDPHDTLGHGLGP

Binder	pKd
B1	below the threshold
B2	below the threshold
B3	below the threshold

Molecular target: T4, TJP3_1, O95049
Test: holdup assay
Design: key: below the threshold = too weak to quantify, mostly under pKd 3.1 to 4
Details: plain residues with an end cap or a label only (N-terminal biotin on a linker: ttds)

Binder	pKd
B1	below the threshold
B2	below the threshold
B3	below the threshold

Molecular target: MAGI3_5, Q5TCQ9
Test: holdup assay
Design: key: below the threshold = too weak to quantify, mostly under pKd 3.1 to 4
Details: plain residues with an end cap or a label only (N-terminal biotin on a linker: ttds)

Sequence of MAGI3_5, Q5TCQ9 (Q5TCQ9 847-941): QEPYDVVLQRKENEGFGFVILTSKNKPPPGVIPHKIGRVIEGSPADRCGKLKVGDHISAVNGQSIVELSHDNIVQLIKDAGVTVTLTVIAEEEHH

Binder	pKd
B1	4.62
B2	below the threshold
B3	below the threshold

Molecular target: RGS3, P49796-9
Test: holdup assay
Design: key: below the threshold = too weak to quantify, mostly under pKd 3.1 to 4
Details: plain residues with an end cap or a label only (N-terminal biotin on a linker: ttds)

Sequence of RGS3, P49796-9 (P49796 other isoform, or with tags, fused parts or gaps): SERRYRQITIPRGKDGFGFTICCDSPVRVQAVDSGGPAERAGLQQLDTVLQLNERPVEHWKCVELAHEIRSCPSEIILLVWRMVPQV

Binder	pKd
B1	below the threshold
B2	below the threshold
B3	below the threshold

Molecular target: PTPN13_2, Q12923
Test: holdup assay
Design: key: below the threshold = too weak to quantify, mostly under pKd 3.1 to 4
Details: plain residues with an end cap or a label only (N-terminal biotin on a linker: ttds)

Sequence of PTPN13_2, Q12923 (Q12923 1363-1462): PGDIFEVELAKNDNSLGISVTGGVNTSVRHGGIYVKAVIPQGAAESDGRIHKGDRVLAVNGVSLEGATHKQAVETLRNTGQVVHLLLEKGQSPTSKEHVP

Binder	pKd
B1	below the threshold
B2	4.45
B3	below the threshold

Molecular target: T5, PDZD2_6, O15018
Test: holdup assay
Design: key: below the threshold = too weak to quantify, mostly under pKd 3.1 to 4
Details: plain residues with an end cap or a label only (N-terminal biotin on a linker: ttds)

Binder	pKd
B1	below the threshold
B2	below the threshold
B3	below the threshold

Molecular target: T6, PDLIM3, Q53GG5
Test: holdup assay
Design: key: below the threshold = too weak to quantify, mostly under pKd 3.1 to 4
Details: plain residues with an end cap or a label only (N-terminal biotin on a linker: ttds)

Binder	pKd
B1	below the threshold
B2	below the threshold
B3	below the threshold

Molecular target: T7, PDZD4, Q76G19
Test: holdup assay
Design: key: below the threshold = too weak to quantify, mostly under pKd 3.1 to 4
Details: plain residues with an end cap or a label only (N-terminal biotin on a linker: ttds)

Binder	pKd
B1	below the threshold
B2	below the threshold
B3	below the threshold

Molecular target: T8, USH1C_1, Q9Y6N9
Test: holdup assay
Design: key: below the threshold = too weak to quantify, mostly under pKd 3.1 to 4
Details: plain residues with an end cap or a label only (N-terminal biotin on a linker: ttds)

Binder	pKd
B1	below the threshold
B2	below the threshold
B3	below the threshold

Molecular target: T9, MPDZ_11, O75970
Test: holdup assay
Design: key: below the threshold = too weak to quantify, mostly under pKd 3.1 to 4
Details: plain residues with an end cap or a label only (N-terminal biotin on a linker: ttds)

Binder	pKd
B1	below the threshold
B2	below the threshold
B3	below the threshold

Molecular target: T10, NHERF3_2, Q5T2W1
Test: holdup assay
Design: key: below the threshold = too weak to quantify, mostly under pKd 3.1 to 4
Details: plain residues with an end cap or a label only (N-terminal biotin on a linker: ttds)

Binder	pKd
B1	below the threshold
B2	below the threshold
B3	below the threshold

Molecular target: Q9Y3R0
Test: holdup assay
Design: key: below the threshold = too weak to quantify, mostly under pKd 3.1 to 4
Details: plain residues with an end cap or a label only (N-terminal biotin on a linker: ttds)

Binder	pKd
B1	below the threshold
B2	below the threshold
B3	below the threshold

Molecular target: PDZD9, Q8IXQ8
Test: holdup assay
Design: key: below the threshold = too weak to quantify, mostly under pKd 3.1 to 4
Details: plain residues with an end cap or a label only (N-terminal biotin on a linker: ttds)

Sequence of PDZD9, Q8IXQ8 (Q8IXQ8 23-120): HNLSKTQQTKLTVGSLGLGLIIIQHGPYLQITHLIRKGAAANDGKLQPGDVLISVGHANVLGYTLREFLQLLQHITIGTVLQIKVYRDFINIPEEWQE

Binder	pKd
B1	below the threshold
B2	below the threshold
B3	below the threshold

Molecular target: Q8TDM6
Test: holdup assay
Design: key: below the threshold = too weak to quantify, mostly under pKd 3.1 to 4
Details: plain residues with an end cap or a label only (N-terminal biotin on a linker: ttds)

Binder	pKd
B1	below the threshold
B2	below the threshold
B3	below the threshold

Molecular target: T11, LNX2_4, Q8N448
Test: holdup assay
Design: key: below the threshold = too weak to quantify, mostly under pKd 3.1 to 4
Details: plain residues with an end cap or a label only (N-terminal biotin on a linker: ttds)

Binder	pKd
B1	4.61
B2	below the threshold
B3	below the threshold

Molecular target: Q96HC4
Test: holdup assay
Design: key: below the threshold = too weak to quantify, mostly under pKd 3.1 to 4
Details: plain residues with an end cap or a label only (N-terminal biotin on a linker: ttds)

Binder	pKd
B1	below the threshold
B2	below the threshold
B3	below the threshold

Molecular target: T12, SHANK3, Q9BYB0
Test: holdup assay
Design: key: below the threshold = too weak to quantify, mostly under pKd 3.1 to 4
Details: plain residues with an end cap or a label only (N-terminal biotin on a linker: ttds)

Binder	pKd
B1	4.22
B2	below the threshold
B3	below the threshold

Molecular target: T13, PDZD11, Q5EBL8
Test: holdup assay
Design: key: below the threshold = too weak to quantify, mostly under pKd 3.1 to 4
Details: plain residues with an end cap or a label only (N-terminal biotin on a linker: ttds)

Binder	pKd
B1	below the threshold
B2	below the threshold
B3	below the threshold
